Data from patent US20040248765.

Test system: Example (8): 1-[3-(D-Alanyl-L-alanyl-L-alanyl-L-leucyl-glycyl-L-leucyl-L-prolylamino)-propylamino]anthraquinone trifluoroacetate

human recombinant MMP-9, sequence (chain, as listed by the source): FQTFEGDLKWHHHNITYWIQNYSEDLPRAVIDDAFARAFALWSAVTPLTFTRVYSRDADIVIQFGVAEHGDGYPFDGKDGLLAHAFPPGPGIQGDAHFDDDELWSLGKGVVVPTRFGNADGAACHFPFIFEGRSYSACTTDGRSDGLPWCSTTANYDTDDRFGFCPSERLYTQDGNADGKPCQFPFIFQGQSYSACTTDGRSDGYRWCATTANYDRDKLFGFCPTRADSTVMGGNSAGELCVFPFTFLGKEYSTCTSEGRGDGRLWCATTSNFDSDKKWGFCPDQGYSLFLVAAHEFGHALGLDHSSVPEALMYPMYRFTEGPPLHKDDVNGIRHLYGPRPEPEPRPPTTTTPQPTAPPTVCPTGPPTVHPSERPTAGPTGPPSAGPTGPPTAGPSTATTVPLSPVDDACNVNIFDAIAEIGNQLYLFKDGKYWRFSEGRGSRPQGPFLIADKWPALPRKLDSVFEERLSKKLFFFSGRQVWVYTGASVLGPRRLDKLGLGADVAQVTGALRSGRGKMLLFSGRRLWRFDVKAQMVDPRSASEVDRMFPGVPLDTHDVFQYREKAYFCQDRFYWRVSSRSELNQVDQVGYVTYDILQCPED

For human recombinant MMP-9, the “cleavage of the peptide conjugate by the enzyme, followed by HPLC and MS/MS” value was “cleavage to anthraquinonyl, spacer-linked tripeptide Example 4”.
